Experimental data taken from the supplement of paper PMC10567573.

B1: ATE1 (parent)
chain: DYFPSEDFYRCGYCKNESGSRSNG

Variants of: B1
Test: protein stability index of a GFP-peptide fusion (GPS, HEK-293T) (PSI 1-6); higher = more stable
Details: c terminus: a fixed tail appended
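Also: lentivirally expressed fusions sorted by FACS into six bins by GFP to DsRed ratio, PSI derived from sequencing read proportions per bin multiplied by bin number.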

Variant | protein stability index
DYFPSEDHYRCGYCKNESGSRSNG [F8H] | 2.19
DYFPSEDGYRCGYCKNESGSRSNG [F8G] | 2.48
DYFPSEDEYRCGYCKNESGSRSNG [F8E] | 3.77
DYFPSEDIYRCGYCKNESGSRSNG [F8I] | 2.35
DYFPSEDQYRCGYCKNESGSRSNG [F8Q] | 2.81
DYFPSEDCYRCGYCKNESGSRSNG [F8C] | 2.54
DYFPSEKFYRCGYCKNESGSRSNG [D7K] | 2.53
DYFPSEQFYRCGYCKNESGSRSNG [D7Q] | 3.11
DYFPSEDFYRCGYCKWESGSRSNG [N16W] | 1.41
DYFPSEDFYRCGYCKFESGSRSNG [N16F] | 1.62
DYFPSEDFYRCGYCKNESGKRSNG [S20K] | 2.36
DYFPSEDFYRCGYCKNESGHRSNG [S20H] | 2.1
DYFPSEDFYRCGYCKNESGNRSNG [S20N] | 1.79
DYFPSEDFYRCGYCKNESGLRSNG [S20L] | 1.33
DYFPSEDFYRCGYCKNESGCRSNG [S20C] | 1.86
DYFPSEDFYRCGYCKNESGDRSNG [S20D] | 2.25
DYFPSEDFYRCGYCKNEFGSRSNG [S18F] | 3.12
DYFPSEDFYRCGYCKNEWGSRSNG [S18W] | 2.05
DYFPSEDFYRCGYCKNETGSRSNG [S18T] | 2.07
DYFPSEDFYRCGYCKNEQGSRSNG [S18Q] | 2.37
DYFPSEDFYRCGYCKNESGSRFNG [S22F] | 1.58
DYFPSEDFYRCGYCKNESGSRTNG [S22T] | 1.82
DYFPSEDFYRCGYCKNESGSRPNG [S22P] | 2.46
DYFPSEDFYRCGYCKNESGSRWNG [S22W] | 2.33

Variant | protein stability index
DYFPSEDFYRCGYCKNESGSRLNG [S22L] | 1.57
DYFPSEDFYRCGYCKNESGSRVNG [S22V] | 2.12
DYIPSEDFYRCGYCKNESGSRSNG [F3I] | 2.27
DYSPSEDFYRCGYCKNESGSRSNG [F3S] | 2.83
DYNPSEDFYRCGYCKNESGSRSNG [F3N] | 2.08
DYPPSEDFYRCGYCKNESGSRSNG [F3P] | 3.21
DYMPSEDFYRCGYCKNESGSRSNG [F3M] | 2.99
DMFPSEDFYRCGYCKNESGSRSNG [Y2M] | 1.36
DVFPSEDFYRCGYCKNESGSRSNG [Y2V] | 2.18
DTFPSEDFYRCGYCKNESGSRSNG [Y2T] | 2.63
DYFPSEDFYRCGNCKNESGSRSNG [Y13N] | 3.83
DYFPSEDFYRCGSCKNESGSRSNG [Y13S] | 3.69
DYFPSEDFYRCGECKNESGSRSNG [Y13E] | 4.41
DYFPSEDFYRCGACKNESGSRSNG [Y13A] | 2.76
DYFPSEDFYRCGMCKNESGSRSNG [Y13M] | 3.8
DYFPSEDFYRCGHCKNESGSRSNG [Y13H] | 3.21
DYFPSEDFYRCGYCTNESGSRSNG [K15T] | 1.85
DYFPSEDFYRCGYCVNESGSRSNG [K15V] | 2.18
DYFPSEDFYRCGYCSNESGSRSNG [K15S] | 2.42
DYFPSEDFYRCCYCKNESGSRSNG [G12C] | 2.01
DYFMSEDFYRCGYCKNESGSRSNG [P4M] | 2.59
DYFCSEDFYRCGYCKNESGSRSNG [P4C] | 2.08
DYFISEDFYRCGYCKNESGSRSNG [P4I] | 1.45
DYFNSEDFYRCGYCKNESGSRSNG [P4N] | 2.16

Variant | protein stability index
DYFTSEDFYRCGYCKNESGSRSNG [P4T] | 2.26
DYFPSEDFYRCGYCKNESGSMSNG [R21M] | 2.08
DYFPSEDFYRCGYCKNESGSDSNG [R21D] | 3.09
DYFPSEDFYRCGYCKNESGSPSNG [R21P] | 2.69
DYFPSEDFYRCGYCKNESGSTSNG [R21T] | 2.24
DYFPSEDFYRCGYCKNESGSESNG [R21E] | 2.44
DYFPSEDFYRCGYYKNESGSRSNG [C14Y] | 3.04
DYFPSEDFYRCGYVKNESGSRSNG [C14V] | 4.1
DYFPSEDFYRCGYTKNESGSRSNG [C14T] | 4.36
DYFPSEDFYRCGYCKNQSGSRSNG [E17Q] | 1.9
DYFPSEDFYRCGYCKNDSGSRSNG [E17D] | 2.44
DYFPSEDFYRCGYCKNCSGSRSNG [E17C] | 1.63
DYFPSEDFYRCGYCKNKSGSRSNG [E17K] | 2.33
DYFPSEDFYRCGYCKNGSGSRSNG [E17G] | 1.96
DYFPSHDFYRCGYCKNESGSRSNG [E6H] | 2.17
DYFPSSDFYRCGYCKNESGSRSNG [E6S] | 1.8
DYFPSDDFYRCGYCKNESGSRSNG [E6D] | 1.92
DYFPSEDFYRKGYCKNESGSRSNG [C11K] | 4.17
DYFPSEDFYRLGYCKNESGSRSNG [C11L] | 2.96
DYFPSEDFYRFGYCKNESGSRSNG [C11F] | 3.46
DYFPSEDFYRYGYCKNESGSRSNG [C11Y] | 3.42
DYFPSEDFYRMGYCKNESGSRSNG [C11M] | 4.12
DYFPSEDFYRNGYCKNESGSRSNG [C11N] | 3.84
DYFPSEDFYRCGYCKNESGSRSHG [N23H] | 2.16

Variant | protein stability index
DYFPSEDFYRCGYCKNESGSRSCG [N23C] | 1.28
DYFPQEDFYRCGYCKNESGSRSNG [S5Q] | 2.41
DYFPSEDFYRCGYCKNESFSRSNG [G19F] | 1.56
DYFPSEDFYRCGYCKNESPSRSNG [G19P] | 2.57
DYFPSEDFYRCGYCKNESHSRSNG [G19H] | 2.03
DYFPSEDFYRCGYCKNESGSRSNT [G24T] | 2.35
DYFPSEDFYRCGYCKNESGSRSNL [G24L] | 2.15
DYFPSEDFYRCGYCKNESGSRSNR [G24R] | 2.5
DYFPSEDFYDCGYCKNESGSRSNG [R10D] | 2.31
DYFPSEDFYWCGYCKNESGSRSNG [R10W] | 2.33
DYFPSEDFYICGYCKNESGSRSNG [R10I] | 1.88
DYFPSEDFYACGYCKNESGSRSNG [R10A] | 2.71
DYFPSEDFYSCGYCKNESGSRSNG [R10S] | 2.2
MYFPSEDFYRCGYCKNESGSRSNG [D1M] | 2.06
PYFPSEDFYRCGYCKNESGSRSNG [D1P] | 2.35
LYFPSEDFYRCGYCKNESGSRSNG [D1L] | 2.38
TYFPSEDFYRCGYCKNESGSRSNG [D1T] | 2.24
KYFPSEDFYRCGYCKNESGSRSNG [D1K] | 2.28
RYFPSEDFYRCGYCKNESGSRSNG [D1R] | 1.74
EYFPSEDFYRCGYCKNESGSRSNG [D1E] | 1.65
DYFPSEDFIRCGYCKNESGSRSNG [Y9I] | 1.88
DYFPSEDFSRCGYCKNESGSRSNG [Y9S] | 2.36
